Reference: US20240182536A1 (MURAL ONCOLOGY, published 2024)
Substitutions are numbered along the chain they refer to. In names and notes the source's numbering stands.

B1: yeast display IL-18 variant K53S, S55K (ligand)
chain: YFGKLESKLSVIRNLNDQVLFIDQGNRPLFEDMTDSDMRDNAPRTIFIISMYSDKQPRGMAVTISVKSEKISTLSSENKIISFKEMNPPDNIKDTKSDIIFFQRSVPGHDNKMQFESSSYEGYFLASEKERDLFKLILKKEDELGDRSIMFTVQNED
B2: yeast display IL-18 variant K53S, S55G (ligand)
chain: B1 chain with K55G
B3: yeast display IL-18 variant K53T, S55P (ligand)
chain: B1 chain with S53T, K55P
B4: yeast display IL-18 variant K53T, S55A (ligand)
chain: B1 chain with S53T, K55A
B5: IL-18 variant S36F, N41E, K53W (ligand)
chain: B1 chain with S36F, N41E, S53W, K55S
B6: IL-18 variant K53G, S55I, R104K, P107Y (ligand)
chain: B1 chain with S53G, K55I, R104K, P107Y
B7: IL-18 variant L15I, K53H, S55M (ligand)
chain: B1 chain with L15I, S53H, K55M
B8: IL-18 variant K53D, S55L (ligand)
chain: B1 chain with S53D, K55L
B9: IL-18 variant T34E, S36P, D40A, N41G, K53T, S55R (ligand)
chain: B1 chain with T34E, S36P, D40A, N41G, S53T, K55R
B10: IL-18 variant K8R, L9G, S10C, K53G, S55A, R104G (ligand)
chain: B1 chain with K8R, L9G, S10C, S53G, K55A, R104G
B11: IL-18 variant K53H, S55Y (ligand)
chain: B1 chain with S53H, K55Y
B12: IL-18 variant T34N, S36N, D40E, N41G, K53S, S55Q, R104N, H109Y (ligand)
chain: B1 chain with T34N, S36N, D40E, N41G, K55Q, R104N, H109Y
B13: IL-18 variant S36E, D37E, D40V, N41S, K53Y, S55V, H109Y (ligand)
chain: B1 chain with S36E, D37E, D40V, N41S, S53Y, K55V, H109Y
B14: IL-18 variant T34S, S36Y, D37N, D40E, N41Q, K53Y, S55I (ligand)
chain: B1 chain with T34S, S36Y, D37N, D40E, N41Q, S53Y, K55I
B15: IL-18 variant S36Q, D40T, K53P, S55L (ligand)
chain: B1 chain with S36Q, D40T, S53P, K55L

Target: T1, human IL-18 binding protein (human, UniProt O95998 31-194)
T1 sequence (looked up): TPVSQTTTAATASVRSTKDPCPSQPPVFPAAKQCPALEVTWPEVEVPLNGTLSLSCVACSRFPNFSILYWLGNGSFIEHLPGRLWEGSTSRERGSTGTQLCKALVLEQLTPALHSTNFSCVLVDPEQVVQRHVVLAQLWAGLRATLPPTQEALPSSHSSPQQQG
Assay: cell-based or functional assay

| Binder | HEK-Blue activity, +100 nM BP, DF-10000 | HEK-Blue activity, +100 nM BP, DF-100,000 | HEK-Blue activity, +100 nM BP, DF-1,000,000 | Ratio (-BP/+BP), DF-10000 | Ratio (-BP/+BP), DF-100,000 | Ratio (-BP/+BP), DF-1,000,000 |
| --- | --- | --- | --- | --- | --- | --- |
| B1 | 2.03 | 1.41 | 0.53 | 0.98 | 0.96 | 0.95 |
| B2 | 1.83 | 0.97 | 0.27 | 0.93 | 0.95 | 1.1 |
| B3 | 1.53 | 0.65 | 0.21 | 0.93 | 0.91 | 0.79 |
| B4 | 1.85 | 0.95 | 0.32 | 0.97 | 1 | 0.89 |

Target: T2, IL-18 receptors on HEK-Blue IL-18 reporter cells (UniProt Q13478 19-541; O95256 20-599, limits assumed)
T2 sequence (looked up) 1: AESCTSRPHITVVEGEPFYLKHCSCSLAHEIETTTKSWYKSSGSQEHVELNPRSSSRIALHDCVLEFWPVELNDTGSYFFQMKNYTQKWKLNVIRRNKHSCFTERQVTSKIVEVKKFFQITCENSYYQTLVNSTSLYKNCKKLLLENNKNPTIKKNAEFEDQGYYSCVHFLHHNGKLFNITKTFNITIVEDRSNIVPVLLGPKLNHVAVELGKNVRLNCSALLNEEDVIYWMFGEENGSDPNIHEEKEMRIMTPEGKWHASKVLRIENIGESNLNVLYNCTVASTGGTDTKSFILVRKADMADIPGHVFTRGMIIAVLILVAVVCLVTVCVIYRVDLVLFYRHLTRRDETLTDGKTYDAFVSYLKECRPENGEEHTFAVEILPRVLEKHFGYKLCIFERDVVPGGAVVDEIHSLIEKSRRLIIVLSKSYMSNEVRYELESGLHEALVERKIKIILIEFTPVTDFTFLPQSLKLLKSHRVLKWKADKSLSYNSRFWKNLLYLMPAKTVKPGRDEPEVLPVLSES
T2 sequence (looked up) 2: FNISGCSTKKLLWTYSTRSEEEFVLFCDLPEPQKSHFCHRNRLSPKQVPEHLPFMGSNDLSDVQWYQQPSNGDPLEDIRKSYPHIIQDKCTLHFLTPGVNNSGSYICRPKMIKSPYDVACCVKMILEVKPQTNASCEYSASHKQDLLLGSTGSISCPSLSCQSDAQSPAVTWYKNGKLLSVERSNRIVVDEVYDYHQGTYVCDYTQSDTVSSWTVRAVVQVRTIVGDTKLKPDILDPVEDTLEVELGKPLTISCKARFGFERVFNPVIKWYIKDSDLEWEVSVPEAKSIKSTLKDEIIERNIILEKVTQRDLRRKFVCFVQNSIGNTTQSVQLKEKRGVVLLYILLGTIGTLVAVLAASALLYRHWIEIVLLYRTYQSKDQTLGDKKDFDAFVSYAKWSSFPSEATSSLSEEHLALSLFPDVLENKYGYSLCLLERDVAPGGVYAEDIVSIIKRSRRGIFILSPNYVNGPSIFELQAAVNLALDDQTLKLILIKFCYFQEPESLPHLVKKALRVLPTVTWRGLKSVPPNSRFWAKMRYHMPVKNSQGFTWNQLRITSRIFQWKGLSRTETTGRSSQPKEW
Assay: cell-based or functional assay

| Binder | HEK-Blue activity, No BP, DF-10000 | HEK-Blue activity, No BP, DF-100,000 | HEK-Blue activity, No BP, DF-1,000,000 |
| --- | --- | --- | --- |
| B1 | 2 | 1.35 | 0.5 |
| B2 | 1.71 | 0.91 | 0.3 |
| B3 | 1.42 | 0.59 | 0.16 |
| B4 | 1.8 | 0.96 | 0.29 |

Target: T3, IL-18 receptors on HEK-Blue IL-18 reporter cells (UniProt Q13478 19-541; O95256 20-599, limits assumed)
T3 sequence (looked up) 1: T2 sequence (looked up) 1
T3 sequence (looked up) 2: T2 sequence (looked up) 2
Assay: cell-based or functional assay

| Binder | HEK-Blue activity, No BP, DF-10000 | HEK-Blue activity, No BP, DF-100,000 | HEK-Blue activity, No BP, DF-1,000,000 |
| --- | --- | --- | --- |
| B5 | 0.09 | 0.1 | 0.09 |
| B6 | 0.1 | 0.09 | 0.09 |
| B7 | 0.11 | 0.1 | 0.09 |
| B8 | 0.11 | 0.09 | 0.09 |
| B9 | 0.09 | 0.1 | 0.09 |
| B10 | 0.1 | 0.13 | 0.1 |
| B11 | 0.09 | 0.09 | 0.09 |
| B12 | 0.09 | 0.09 | 0.08 |
| B13 | 0.09 | 0.09 | 0.09 |
| B14 | 0.09 | 0.09 | 0.09 |
| B15 | 0.09 | 0.13 | 0.08 |

Target: T4, interleukin 18 binding protein (IL-18BP) (UniProt O95998 31-194)
T4 sequence (looked up): T1 sequence (looked up)
Assay: cell-based or functional assay

| Binder | HEK-Blue activity, +100 nM BP, DF-10000 | HEK-Blue activity, +100 nM BP, DF-100,000 | HEK-Blue activity, +100 nM BP, DF-1,000,000 | Ratio (-BP/+BP), DF-10000 | Ratio (-BP/+BP), DF-100,000 | Ratio (-BP/+BP), DF-1,000,000 |
| --- | --- | --- | --- | --- | --- | --- |
| B5 | 0.09 | 0.1 | 0.09 | 1 | 1.01 | 0.91 |
| B6 | 0.11 | 0.09 | 0.09 | 0.99 | 1 | 0.95 |
| B7 | 0.12 | 0.1 | 0.08 | 0.9 | 0.99 | 1.02 |
| B8 | 0.1 | 0.09 | 0.09 | 1.02 | 1.03 | 1.01 |
| B9 | 0.1 | 0.09 | 0.09 | 0.98 | 1.01 | 0.96 |
| B10 | 0.12 | 0.14 | 0.1 | 0.88 | 0.92 | 1.03 |
| B11 | 0.1 | 0.1 | 0.11 | 0.91 | 0.99 | 0.8 |
| B12 | 0.09 | 0.09 | 0.09 | 0.95 | 1.01 | 0.95 |
| B13 | 0.09 | 0.1 | 0.1 | 1.03 | 0.92 | 0.89 |
| B14 | 0.09 | 0.09 | 0.12 | 0.98 | 0.96 | 0.75 |
| B15 | 0.09 | 0.09 | 0.09 | 1.09 | 1.44 | 0.9 |
